Assay results taken from US20260028391A1.
Like-named read-outs stand apart in the source and are kept apart here.

How the values were obtained:
[1] = target: RSV-A F (RSV A); test: BLI
[2] = target: RSV-B F (RSV B); test: BLI
[3] = target: RSV A Randall fusion glycoprotein (F) (RSV A, strain Randall); test: cell-based or functional assay
[4] = target: RSV A fusion glycoprotein (F), virus of the neutralisation assays of Tables 54 and 57 (RSV A); test: cell-based or functional assay
[5] = target: RSV A2 BPR-344-00 (BEI NR-12149) fusion glycoprotein (F) (RSV A, strain A2) (UniProt P03420); test: cell-based or functional assay
[6] = target: RSV B 9719/09 fusion glycoprotein (F) (RSV B, strain 9719/09); test: cell-based or functional assay
[7] = target: RSV B1 BPR-348-00 (BEI NR-4052) fusion glycoprotein (F) (RSV B, strain B1) (UniProt O36634); test: cell-based or functional assay
[8] = target: RSV-B B18537/62 F protein (RSV B, strain B18537/62) (UniProt P13843); test: cell-based or functional assay
[9] = target: RSV-B B9320 F protein (RSV B, strain B9320); test: cell-based or functional assay
[10] = target: RSV-long strain fusion glycoprotein (F) (RSV, long strain) (UniProt P12568); test: cell-based or functional assay
[11] = target: fusion glycoprotein (F) of MPV A GFP (Tables 41 and 43) (metapneumovirus A); test: cell-based or functional assay
[12] = target: fusion glycoprotein (F) of RSV A GFP (Tables 41 and 42) (respiratory syncytial virus A); test: cell-based or functional assay
[13] = target: fusion glycoprotein (F) of RSV B GFP (Tables 41 and 42) (respiratory syncytial virus B); test: cell-based or functional assay
[14] = target: RSV A 2000/3-4 fusion glycoprotein (F) (RSV A, strain A 2000/3-4); test: cell-based or functional assay
[15] = target: RSV A 2001/3-12 fusion glycoprotein (F) (RSV A, strain A 2001/3-12); test: cell-based or functional assay
[16] = target: RSV A1997/12-35 fusion glycoprotein (F) (RSV A, strain A1997/12-35); test: cell-based or functional assay
[17] = target: RSV A1998/3-2 fusion glycoprotein (F) (RSV A, strain A1998/3-2); test: cell-based or functional assay
[18] = target: RSV A2 (screening GFP strain) fusion glycoprotein (F) (RSV A); test: cell-based or functional assay
[19] = target: RSV A2 BPR-344-00 (BEI NR-12149) fusion glycoprotein (F) (RSV A, strain A2) (UniProt P03420); test: cell-based or functional assay; remark: listed apart in the source
[20] = target: RSV A2 VR 1540 fusion glycoprotein (F) (RSV A, strain A2 (VR 1540)) (UniProt P03420); test: cell-based or functional assay
[21] = target: RSV B (screening GFP strain) fusion glycoprotein (F) (RSV B); test: cell-based or functional assay
[22] = target: RSV Ds Red 5 fusion glycoprotein (F) (RSV, strain printed as Ds Red 5); test: cell-based or functional assay
[23] = target: RSV F A G446E (RSV A, strain A2) (UniProt P03420); test: FACS, % binding to RSV F A variants
[24] = target: RSV F A L203I (RSV A, strain A2) (UniProt P03420); test: FACS, % binding to RSV F A variants
[25] = target: RSV F A N208Y-N671I (RSV A, strain A2) (UniProt P03420); test: FACS, % binding to RSV F A variants
[26] = target: RSV F A S433P (RSV A, strain A2) (UniProt P03420); test: FACS, % binding to RSV F A variants
[27] = target: RSV F A S433P-G446E (RSV A, strain A2) (UniProt P03420); test: FACS, % binding to RSV F A variants
[28] = target: RSV F A S443P-K445N (RSV A, strain A2) (UniProt P03420); test: FACS, % binding to RSV F A variants
[29] = target: RSV F A, A2 Ref (RSV A, strain A2) (UniProt P03420); test: FACS, % binding to RSV F A variants
[30] = target: RSV F B K68N-N201S (RSV B); test: FACS, % binding to RSV F B variants
[31] = target: RSV F B K68N-N208S (RSV B); test: FACS, % binding to RSV F B variants
[32] = target: RSV F B N201S (RSV B); test: FACS, % binding to RSV F B variants
[33] = target: RSV F B N208D (RSV B); test: FACS, % binding to RSV F B variants
[34] = target: RSV F B N208S (RSV B); test: FACS, % binding to RSV F B variants
[35] = target: RSV F B S443P (RSV B); test: FACS, % binding to RSV F B variants
[36] = target: RSV F B, B Ref (RSV B); test: FACS, % binding to RSV F B variants
[37] = target: RSV-A F (RSV A); test: affinity; method not given
[38] = target: RSV-B F (RSV B); test: affinity; method not given
[39] = target: biot-RSV-F wt (respiratory syncytial virus (RSV)); test: BLI (Octet), biotinylated F on SA sensors, mAb 5 µg/ml

Substance: MEDI8897-rIgG1-YTE (antibody)
- Kd [1]: 0.035 nM
- Kd [2]: 0.221 nM
- IC50, virus neutralization [3]: 2.42 ng/mL
- IC50, neutralization of RSVA [4]: 7.74 ng/mL
- IC50, virus neutralization [5]: 0.2 ng/mL
- IC50, virus neutralization [6]: 1.25 ng/mL
- EC50, virus neutralization (Fab testing) [7]: 0.0088 nM
- IC50, virus neutralization [7]: 0.4 ng/mL
- EC50, virus neutralization (Fab testing) [8]: 0.011 nM
- EC50, virus neutralization (Fab testing) [9]: 0.0102 nM
- EC50, virus neutralization (Fab testing) [10]: 0.0069 nM
- IC50 (ng/ml), MPV A GFP neutralization [11]: > 2000 ng/mL
- IC50 (ng/ml), RSV A GFP neutralization [12]: 0.483 ng/mL
- IC50 (ng/ml), RSV B GFP neutralization [13]: 0.419 ng/mL
- IC50, virus neutralization [14]: 0.57 ng/mL
- IC50, virus neutralization [15]: 0.63 ng/mL
- IC50, virus neutralization [16]: 0.76 ng/mL
- IC50, virus neutralization [17]: 0.9 ng/mL
- IC50, virus neutralization [18]: 1.02 ng/mL
- IC50, virus neutralization [19]: 1.01 ng/mL
- IC50, virus neutralization [20]: 1.14 ng/mL
- IC50, virus neutralization [21]: 1.14 ng/mL
- IC50, virus neutralization [22]: 0.48 ng/mL
- % binding [23]: 28.5%
- % binding [24]: 0.04%
- % binding [25]: 0.049%
- % binding [26]: 35.3%
- % binding [27]: 35.8%
- % binding [28]: 34.5%
- % binding [29]: 60.2%
- % binding [30]: 0.056%
- % binding [31]: 0.031%
- % binding [32]: 27.3%
- % binding [33]: 0.026%
- % binding [34]: 0.035%
- % binding [35]: 38.5%
- % binding [36]: 57.3%
- Kd [37]: 0.001 nM
- Kd [38]: 1.22 nM
- Kd [39]: 0.0397 nM
